System: K4 kissing-loop RNA reporter
Test: apparent KD of K4 kissing-loop reporter; higher = weaker reporter binding
Settings: Eterna round: R107
Experimental: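 RNA-MaP round R107: designed RNA switches with theophylline, tryptophan, arginine or FMN aptamers are transcribed on-chip within common flanks. They are titrated with a labelled K4 kissing-loop RNA reporter in RNA-MaP buffer (100 mM Tris pH 7.5, 80 mM KCl, 4 mM MgCl2), without ligand or with the indicated ligand. Median apparent KD per design.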

[1] = input ligand: theophylline 20 uM
[2] = input ligand: tryptophan 2.4 mM
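Note: bound reporter read as fluorescence of individual clusters on recovered sequencing chips by microscopy, with normalized cluster intensities fitted with a binding model.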

AAAACUAUCAGAAGGAGCGUGGAAUAUACAUCUAUAUUUAAUACGAGUGAUGUUCGUAAUUCACAGGUAGGUCGCUGAUCAAUAA [whbob_Ex_Arginine_B_2th153]
apparent KD of K4 kissing-loop reporter (input ligand: FMN 200 uM): 228 nM
apparent KD of K4 kissing-loop reporter (input ligand: arginine 13.2 mM): 320 nM
apparent KD of K4 kissing-loop reporter (input ligand: none): 278 nM
apparent KD of K4 kissing-loop reporter [1]: 359 nM
apparent KD of K4 kissing-loop reporter [2]: 206 nM

AAAACUAUCAGAAGGAGCGUGGAAUAUUCAUCUGUAUCUAAUACGAGUGAUGUUCGUAAUUCACAGGUAGGUCGCUGAUCAAUAA [whbob_Ex_Arginine_B_2th155]
apparent KD of K4 kissing-loop reporter (input ligand: FMN 200 uM): 255 nM
apparent KD of K4 kissing-loop reporter (input ligand: arginine 13.2 mM): 226 nM
apparent KD of K4 kissing-loop reporter (input ligand: none): 241 nM
apparent KD of K4 kissing-loop reporter [1]: 250 nM
apparent KD of K4 kissing-loop reporter [2]: 241 nM

AAAAUAAAAGCAGUCAUCGGAGUGAUGUUCCGAGGACCGGUACGGCCGCCACUCGACCAGACAAAGUCUGGAUGGCGAGACUGCA [#SwitchBubble 18 #K4Early]
apparent KD of K4 kissing-loop reporter (input ligand: FMN 200 uM): 83.6 nM
apparent KD of K4 kissing-loop reporter (input ligand: arginine 13.2 mM): 85.1 nM
apparent KD of K4 kissing-loop reporter (input ligand: none): 102 nM
apparent KD of K4 kissing-loop reporter [1]: 91.4 nM
apparent KD of K4 kissing-loop reporter [2]: 85.6 nM

AAAAUAAACCAGUGAUGUUGGUGUCCAGAUACCAGCGACGAAAGUCGCCCUUGGCAGCUGUGGACGUACAAAAUAAGUACGUCCU
apparent KD of K4 kissing-loop reporter (input ligand: FMN 200 uM): 332 nM
apparent KD of K4 kissing-loop reporter (input ligand: arginine 13.2 mM): 229 nM
apparent KD of K4 kissing-loop reporter (input ligand: none): 356 nM
apparent KD of K4 kissing-loop reporter [1]: 209 nM
apparent KD of K4 kissing-loop reporter [2]: 290 nM

AAAAUAAAUCAGUGAUGUUGGUAUCUGGAUACCAGCGAUAAUAAUCGCCCUUGGCAGCCAUGGACGUACAAAAUAAGUACGUCCU [MatMod 18 - Jieux - Same State - Theophylline A]
apparent KD of K4 kissing-loop reporter (input ligand: FMN 200 uM): 285 nM
apparent KD of K4 kissing-loop reporter (input ligand: arginine 13.2 mM): 154 nM
apparent KD of K4 kissing-loop reporter (input ligand: none): 226 nM
apparent KD of K4 kissing-loop reporter [1]: 337 nM
apparent KD of K4 kissing-loop reporter [2]: 200 nM

AAAAUUAAGGCCGAAUAAACUUAUUUCAUACGAGGACCGGUACGGCCGCCACUCGAGUCAAGUGAUGUUUGACUAUCUAUUAUUA [JR_ExcTryptoA_Sub009]
apparent KD of K4 kissing-loop reporter (input ligand: FMN 200 uM): 61.4 nM
apparent KD of K4 kissing-loop reporter (input ligand: arginine 13.2 mM): 87.1 nM
apparent KD of K4 kissing-loop reporter (input ligand: none): 68.7 nM
apparent KD of K4 kissing-loop reporter [1]: 83 nM
apparent KD of K4 kissing-loop reporter [2]: 54 nM

AAACAUCACUGGGAGUGAUGUUCUCAGUGACGAGGACCGGUACGGCCGCCACUCGCGAGAGAUAUAGAUGAGUAAUGACAUCAUU [Excl Tryptophan A V3]
apparent KD of K4 kissing-loop reporter (input ligand: FMN 200 uM): 277 nM
apparent KD of K4 kissing-loop reporter (input ligand: arginine 13.2 mM): 232 nM
apparent KD of K4 kissing-loop reporter (input ligand: none): 286 nM
apparent KD of K4 kissing-loop reporter [1]: 274 nM
apparent KD of K4 kissing-loop reporter [2]: 304 nM

AAACAUCACUGGGAGUGAUGUUCUCAGUGACGAGGACCGGUACGGCCGCCACUCGCGAGAGAUUUAGUCUAGUAUUGACUGCAUU [Excl Tryptophan A V11]
apparent KD of K4 kissing-loop reporter (input ligand: FMN 200 uM): 294 nM
apparent KD of K4 kissing-loop reporter (input ligand: arginine 13.2 mM): 273 nM
apparent KD of K4 kissing-loop reporter (input ligand: none): 304 nM
apparent KD of K4 kissing-loop reporter [1]: 353 nM
apparent KD of K4 kissing-loop reporter [2]: 358 nM

AAACGUUGGUGCGAUACCAGCUUGCGCGGAAAACGCGCUACUGGAGUGAUGUUCCUAAAUAGCCCUUGGCAGCGCACCGACGAAA [MAT - Same State Theophlline B - Mod of Eli - D9]
apparent KD of K4 kissing-loop reporter (input ligand: FMN 200 uM): 193 nM
apparent KD of K4 kissing-loop reporter (input ligand: arginine 13.2 mM): 146 nM
apparent KD of K4 kissing-loop reporter (input ligand: none): 155 nM
apparent KD of K4 kissing-loop reporter [1]: 107 nM
apparent KD of K4 kissing-loop reporter [2]: 170 nM

AAAGCAUUGAGAAGGAGCGUGUCGUGGAGUGAUGUUCCAUUGUAGACCUAAGGUCUACAAGCACAGGUAGGUCGCUCAUUGCUAA [JR_Nu_SSArginiB_Sub023]
apparent KD of K4 kissing-loop reporter (input ligand: FMN 200 uM): 169 nM
apparent KD of K4 kissing-loop reporter (input ligand: arginine 13.2 mM): 148 nM
apparent KD of K4 kissing-loop reporter (input ligand: none): 173 nM
apparent KD of K4 kissing-loop reporter [1]: 138 nM
apparent KD of K4 kissing-loop reporter [2]: 156 nM

AAAGGAUCAGAGAGUGAUGUUCUCUAAUAACGAGGACCGGUACGGCCGCCACUCGAAGAUCCAAAAGUCCUACGAAAAGUAGGAC [Omei inspired 7]
apparent KD of K4 kissing-loop reporter (input ligand: FMN 200 uM): 92.9 nM
apparent KD of K4 kissing-loop reporter (input ligand: arginine 13.2 mM): 69.3 nM
apparent KD of K4 kissing-loop reporter (input ligand: none): 83.7 nM
apparent KD of K4 kissing-loop reporter [1]: 251 nM
apparent KD of K4 kissing-loop reporter [2]: 263 nM

AAAUAGAUCAGUCACCCAGUGAUGUUGGAAGGAGCGUGCGAAAGCACAGGUAGGUCGCCGAAAUAAAAUUGGCUGAUCAAAAUAA
apparent KD of K4 kissing-loop reporter (input ligand: FMN 200 uM): 151 nM
apparent KD of K4 kissing-loop reporter (input ligand: arginine 13.2 mM): 221 nM
apparent KD of K4 kissing-loop reporter (input ligand: none): 116 nM
apparent KD of K4 kissing-loop reporter [1]: 308 nM
apparent KD of K4 kissing-loop reporter [2]: 104 nM

AAAUAGCAGCAACGAGUGAUGUUCGACGAUACCAGCCUCGAUAGAGGCCCUUGGCAGCGUAAAUGAUCACAAAGCCAAGGGCUGC [#SwitchBubble 2]
apparent KD of K4 kissing-loop reporter (input ligand: FMN 200 uM): 382 nM
apparent KD of K4 kissing-loop reporter (input ligand: arginine 13.2 mM): 372 nM
apparent KD of K4 kissing-loop reporter (input ligand: none): 458 nM
apparent KD of K4 kissing-loop reporter [1]: 453 nM
apparent KD of K4 kissing-loop reporter [2]: 397 nM

AAAUAUUCGAGUGAUGUUCGAAUAAUAUCAGAGGAUAUGCAUAAAAGCAGAAGGCUGUAUUACUUUUUGUUACGAAAUUUUAUAA [JR_SSFMNA_Sub020]
apparent KD of K4 kissing-loop reporter (input ligand: FMN 200 uM): 111 nM
apparent KD of K4 kissing-loop reporter (input ligand: arginine 13.2 mM): 115 nM
apparent KD of K4 kissing-loop reporter (input ligand: none): 102 nM
apparent KD of K4 kissing-loop reporter [1]: 118 nM
apparent KD of K4 kissing-loop reporter [2]: 115 nM

From the supplement of paper PMC9170038
